# Assay results taken from paper PMC5902653 (The Analyst, 2018).
# Read-outs that look alike come from different tables or passages of the source. *: point of attachment. FITC = O=C1OC2(c3ccc(O)cc3Oc3cc(O)ccc32)c2ccc(NC(=S)*)cc21; βAla = NCCC(=O)O
# B1: E2A17 peptide, FITC labeled (peptide)
# peptide: {FITC-βAla}-GTDKELSDLLDFSAMFS-NH2
# SMILES: CSCC[C@H](NC(=O)[C@H](C)NC(=O)[C@H](CO)NC(=O)[C@H](Cc1ccccc1)NC(=O)[C@H](CC(=O)O)NC(=O)[C@H](CC(C)C)NC(=O)[C@H](CC(C)C)NC(=O)[C@H](CC(=O)O)NC(=O)[C@H](CO)NC(=O)[C@H](CC(C)C)NC(=O)[C@H](CCC(=O)O)NC(=O)[C@H](CCCCN)NC(=O)[C@H](CC(=O)O)NC(=O)[C@@H](NC(=O)CNC(=O)CCNC(=S)Nc1ccc2c(c1)C(=O)OC21c2ccc(O)cc2Oc2cc(O)ccc21)[C@@H](C)O)C(=O)N[C@@H](Cc1ccccc1)C(=O)N[C@@H](CO)C(N)=O
# B2: c-Myb peptide, FITC labeled (peptide)
# peptide: {FITC-βAla}-KEKRIKELELLLMSTENELKGQQALW-NH2
# SMILES: CC[C@H](C)[C@H](NC(=O)[C@H](CCCNC(=N)N)NC(=O)[C@H](CCCCN)NC(=O)[C@H](CCC(=O)O)NC(=O)[C@H](CCCCN)NC(=O)CCNC(=S)Nc1ccc2c(c1)C(=O)OC21c2ccc(O)cc2Oc2cc(O)ccc21)C(=O)N[C@@H](CCCCN)C(=O)N[C@@H](CCC(=O)O)C(=O)N[C@@H](CC(C)C)C(=O)N[C@@H](CCC(=O)O)C(=O)N[C@@H](CC(C)C)C(=O)N[C@@H](CC(C)C)C(=O)N[C@@H](CC(C)C)C(=O)N[C@@H](CCSC)C(=O)N[C@@H](CO)C(=O)N[C@H](C(=O)N[C@@H](CCC(=O)O)C(=O)N[C@@H](CC(N)=O)C(=O)N[C@@H](CCC(=O)O)C(=O)N[C@@H](CC(C)C)C(=O)N[C@@H](CCCCN)C(=O)NCC(=O)N[C@@H](CCC(N)=O)C(=O)N[C@@H](CCC(N)=O)C(=O)N[C@@H](C)C(=O)N[C@@H](CC(C)C)C(=O)N[C@@H](Cc1c[nH]c2ccccc12)C(N)=O)[C@@H](C)O
# Key:
# Experiment in all cases: cross-linking
# [1] = biological target: heat shock protein 70 (Hsp70), labeled with AlexaFluor488 (UniProt P0DMV8)
# [2] = biological target: T1, KIX domain of mouse CREB-binding protein (mouse, UniProt P45481 586-665)
# T1 sequence (P45481 586-665): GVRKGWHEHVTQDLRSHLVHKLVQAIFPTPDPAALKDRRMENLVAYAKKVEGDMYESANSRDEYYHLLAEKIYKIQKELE
# [3] = biological target: T1, KIX domain of mouse CREB-binding protein; remark: listed apart in the source
Molecule,Kd [1] [nM],other results
bcl2 association athanogene 3 (Bag3) (from UniProt O95817 1-575) (natural protein),26,–
"heat shock protein 70 (Hsp70), labeled with AlexaFluor488 (from UniProt P0DMV8 1-641) (natural protein)",1200,–
B1,–,Kd [2]: 1100 ± 200 nM
B2,–,Kd [3]: 3100 ± 500 nM
